# Experimental data reported in paper PMC4072508, “Genome-Wide Prediction and Validation of Peptides That Bind Human Prosurvival Bcl-2 Proteins” (PLoS Computational Biology, 2014).
# Read-outs that look alike come from different tables or passages of the source.
# Assays:
# Mcl-1 [1] = target: T1, Mcl-1 (Homo sapiens, UniProt Q07820); experiment: LUMIER full-length protein interaction; type: binding; conditions: LUMIER results for Mcl-1, Z-score relative to Gaussian fit of the data; for z-score 1.2: experiment 1, duplicate 2; for z-score 2.1: experiment 2, duplicate 1; for z-score 2.2: experiment 2, duplicate 2
# T1 construct: myc-Mcl-1 SPOT array & FP; made in house
# T1 sequence (Q07820 with tags, fused parts or gaps): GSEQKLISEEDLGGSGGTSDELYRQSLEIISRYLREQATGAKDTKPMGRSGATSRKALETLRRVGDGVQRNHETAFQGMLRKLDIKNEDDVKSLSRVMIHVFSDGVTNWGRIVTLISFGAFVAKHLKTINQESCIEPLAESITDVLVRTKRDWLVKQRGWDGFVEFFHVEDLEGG
# Method: (§1) The LUMIER assay was carried out as previously described with the following modifications. A stable cell line expressing receptor tagged on the N-terminus with Nanoluc luciferase was created (the prey). […] Each bait construct was transfected into the receptor-luciferase cells in a 96-well format and after 48 hours the cells were lysed and transferred to 384-well plates coated with anti-FLAG. After incubation and washing, luminescence was measured to quantify how much receptor-luciferase was captured by the bait protein. Anti-Flag ELISA signal was used to exclude bait proteins that were not expressed. The experiment was carried out two times, each in duplicate.
# Bcl-xL = target: T2, Bcl-xL (Homo sapiens, UniProt Q07817); experiment: LUMIER full-length protein interaction; type: binding; conditions: LUMIER results for Bcl-xL; for z-score 1.1: experiment 1, duplicate 1; for z-score 1.2: experiment 1, duplicate 2; for z-score 2.1: experiment 2, duplicate 1; for z-score 2.2: experiment 2, duplicate 2
# T2 construct: myc-Bcl-xL SPOT array & FP; made in house
# T2 sequence (Q07817 with tags, fused parts or gaps): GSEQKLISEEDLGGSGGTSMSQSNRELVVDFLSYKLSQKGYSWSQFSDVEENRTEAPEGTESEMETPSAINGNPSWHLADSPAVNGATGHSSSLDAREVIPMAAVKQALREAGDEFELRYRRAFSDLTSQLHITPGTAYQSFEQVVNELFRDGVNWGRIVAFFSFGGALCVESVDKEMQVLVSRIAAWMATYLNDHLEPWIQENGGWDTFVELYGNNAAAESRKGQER
# Method: as §1
# Mcl-1 [2] = target: T1, Mcl-1; conditions: read-out: Binder class, Mcl-1, cited from earlier work
# From the text: Negative control mutatio ...
# [3] = Z-score relative to Gaussian fit of the data
# [4] = S1 Bim variants, specific binding measured using yeast display, ref Dutta et al. (2010)
# [5] = natural BH3 peptides, interactions taken from literature
# [6] = Z-score of the interaction relative to the Gaussian fit of the data
z-score 1.2 (Mcl-1 [1]),z-score 2.1 (Mcl-1 [1]),z-score 2.2 (Mcl-1 [1]),z-score 1.1 (Bcl-xL; [3]),z-score 1.2 (Bcl-xL; [3]),z-score 2.1 (Bcl-xL; [3]),z-score 2.2 (Bcl-xL; [3]),Substance,Kd (Mcl-1 [2]; [4]) [nM],also measured
0.6104,-0.8677,-1.447,0.3673,-1.779,0.009756,-0.6661,CYBB (APEEDFFSIHIRIVGDWTEGLFNACG),,
-0.4768,-0.1664,-0.7985,-1.728,-2.609,2.234,-0.644,FUT8 (KKLKNLEGNELQRHADEFLLDLGHHE),,
0.7158,-0.81,-1.083,0.2217,-0.6971,-0.4961,-0.5692,GBP6 (NDDTPWIARTLDNLADELTAILSAPA),,
-0.6263,-0.8736,-1.0005,-0.01422,-0.04633,-0.5606,-0.592,CYP2A6 (MPYMEAVIHEIQRFGDVIPMSLARRV),,
,,,,,,,PEIWFAQEIERIGDEVNAYYARR,< 1000,
,,,,,,,PEIWIAQGLRRIGDTWNAYYARR,,"Kd (Mcl-1 [2]; S2 Bim variants, ref Dutta et al. (2013)): < 1000 nM"
0.7914,1.721,2.179,2.487,-0.8795,0.2924,1.441,ACN9 (LQLHRVLPPDLKSLGDQYVKDEFRRH),,
0.03188,,-0.4966,4.354,-0.599,1.203,1.501,FOXI1 (PDKRLTLSQIYQYVADNFPFYNKSKA),,
,,,,,,,PEIWVAQEIERIGDEVNAYYARR,< 1000,
1.007,0.04852,-0.477,1.122,0.5458,0.3748,0.07051,SGCA (LFWTPLLVVLLAGLGDTEAQQTTLHP),,
1.162,0.005652,1.343,-0.79,-2.494,0.3656,0.03743,NRN1L (DTIYQGFAECLIRLGDSMGRGGELET),,
-0.5001,0.001659,-1.314,0.7648,-1.829,,-0.5885,EXOC4 (MQTLSELAKSFQDMADRCLLVLHLEV),,
-0.7174,0.2302,-0.2533,3.909,-0.1665,0.7598,-0.2,TAP1 (MSILTIASAVLEFVGDGIYNNTMGHV),,
,,,,,,,PEIWIAQEIDRIGNEINAYYARR,< 1000,
,,,,,,,AAQLTAARLKALGDELHQRTMWR [Hrk],,Kd (Mcl-1 [2]; [5]): > 10000 nM
,,,,,,,PEIWIAQEIDRIGDEVNAYYARR,< 1000,
,,,,,,,PEIWVAQEFQRAGDEYNAYYARR,> 10000,
0.3355,1.744,0.6936,5.112,,2.327,1.895,RBL1 (WTLFVYTKGNFRMIGDDLVNSYHLLL),,

z-score 1.2 (Mcl-1 [1]),z-score 2.1 (Mcl-1 [1]),z-score 2.2 (Mcl-1 [1]),z-score 1.1 (Bcl-xL; [3]),z-score 1.2 (Bcl-xL; [3]),z-score 2.1 (Bcl-xL; [3]),z-score 2.2 (Bcl-xL; [3]),Substance,Kd (Mcl-1 [2]; [4]) [nM],also measured
,,,,,,,IIRNIARHLAQVGDSMDRSIPPG (EDIIRNIARHLAQVGDSMDRSIPPGL) [Bid],,Kd (Mcl-1 [2]; [5]): < 1000 nM
,,,,,,,RLAEVCAVLLRLGDELEMIRPSV (PGRLAEVCAVLLRLGDELEMIRPSVY) [Bok],,Kd (Mcl-1 [2]; [5]): < 1000 nM
6.48,5.961,6.848,,,,,BAK1 (SSTMGQVGRQLAIIGDDINRRYDSEF),,z-score 1.1 (Bcl-xL; [6]): 0.8883; z-score 1.2 (Bcl-xL; [6]): 2.921; z-score 2.1 (Bcl-xL; [6]): 1.064; z-score 2.2 (Bcl-xL; [6]): 1.82
,,,,,,,AEVQIARKLQCIADQFHRLHVQQ (HQAEVQIARKLQCIADQFHRLHVQQH) [Bmf],,Kd (Mcl-1 [2]; [5]): > 10000 nM
,,,,,,,PEIWFAQEVGRIGDEINAYYARR,< 1000,
-0.6557,-0.4574,-0.175,-0.4003,-1.2734,2.098,0.0146,FBXL3 (CHGLRELALNYHLLSDELLLALSSEK),,
,,,,,,,PEIWIAQEIRRIGEEYNAYYARR,< 1000,
,,,,,,,PEIWIAQEIDRIGDEFNAYYARR,< 1000,
,,,,,,,PEIWAAQEIRRIGDESNAYYARR,< 1000,
,,,,,,,PEIWIAQEIDRIGDETNAYYARR,< 1000,
0.8015,1.282,1.811,,,,,CCDC57 (QAGPVSSGLALRKLGDRVQLLNLLVT),,z-score 1.1 (Bcl-xL; [6]): 2.807; z-score 1.2 (Bcl-xL; [6]): 1.916; z-score 2.1 (Bcl-xL; [6]): 0.2364; z-score 2.2 (Bcl-xL; [6]): 0.8316
1.584,1.802,1.866,8.932,-0.8907,0.7008,0.6709,IPO5 (SEIMHSFAKCIEVMGDGCLNNEHFEE),,
,,,,,,,PEIWIAQEINRVGDEINAYYARR,< 1000,
,,,,,,,PEIWFAQELRRDGDEYNAYYARR,> 10000,
,,,,,,,PEIWVAQEFGRNGDEFNAYYARR,> 10000,
,,,,,,,PEIWVAQEFKRFGDEYNAYYARR,> 10000,
,,,,,,,PEIWFAQEVGRIGDEVNAYYARR,< 1000,
